Test results from paper PMC5908803, “Cryo-EM structure of the RC-LH core complex from an early branching photosynthetic prokaryote” (Nature Communications, 2018).

Target: the molecule itself
Assay: cryo-EM structure; single-particle cryo-EM of the rcRC-LH complex purified whole from native membranes, 3 mg/mL in 0.02% DDM, 150 mM NaCl, 50 mM Tris-HCl pH 8.0; 4.1 Å (subunit X helix seen after low-pass filter to 6 Å)

B1: LHαβ heterodimer of Roseiflexus castenholzii (complex)
chain 1: MKDRPFEFRTSVVVSTLLGLVMALLIHFVVLSSGAFNWLRAP
chain 2: MTDKPQNDLVPDQWKPLFNNAQWLVHDIVVKTIYGGLIIAVIAHVLCWAWTPWIR
notes: α subunit of the LH antenna, Roseiflexus castenholzii, encoded by puf A; β subunit of the LH antenna, Roseiflexus castenholzii, encoded by puf B; Each heterodimer holds two B880, one B800 and one keto-γ-carotene; 15 of them form the open elliptical LH ring; also called LHαβ subunit
  stoichiometry N: 15
